This note sets out measurements from PMC4431665.

The target in experiment [1] is Hsp70 E. coli T504E phosphomimic variant (human) (UniProt P0DMV8). The experiment in a line: native MS; labeled wild-type Hsp70 E. coli and the T504E variant examined in a 1:1 ratio (Figure S1C).
In experiment [2] the target is Hsp70 expressed in Sf9 insect cells (Hsp70Sf9) (human) (UniProt P0DMV8). The experiment in a line: native MS; 1:1 mixture of 3 μM 13C-labeled Hsp70 E. coli and Hsp70Sf9, incubated without phosphatase in 100 mM AmAc pH 7.5 at 4°C for 16 hr; high backing pressure.
Experiment [3] shares this target. The experiment in a line: native MS; 2 μM Hsp70Sf9, 0.5 μM Hsp40, 200 μM ATP/Mg2+, binding buffer with 50, 100 or 300 mM KCl, 1 hr at room temperature; buffer exchanged to 100 mM AmAc.
Experiment [4] addresses Hsp90_(2)Hop complex (human) (UniProt P07900). The experiment in a line: native MS; Hsp90 and Hop with either Hsp70 E. coli or Hsp70Sf9, in the absence of Hsp40.
Experiment [5] has as its target Hsp70 expressed in Sf9 insect cells (Hsp70Sf9) (human) (UniProt P0DMV8). In words: native MS; 1:1 ratio of 13C-labeled Hsp70 E. coli and Hsp70Sf9 with catalytic amounts of Hsp40 and ATP.
The target is the same in experiment [6]. The experiment in a line: cross-linking; BS3 on Hsp70Sf9 in excess ATP (also ADP, ATPγS); SDS-PAGE, monomer and dimer bands digested with trypsin, LC-MS/MS.
Experiment [7] shares this target. The experiment in a line: native MS; 1:1 mixture of 13C-labeled Hsp70 E. coli and Hsp70Sf9 at 8 μM; parameters designed to preserve non-covalent interactions.
The target of experiment [8] is Hsp70 E. coli V438F/T504E substrate-binding-deficient variant (human) (UniProt P0DMV8). In words: not stated; dimerization of the V438F/T504E mutant (Figure S4B); method not given.
A further experiment deals with Yeast Hsp40 (yeast) (UniProt P25491). In words: native MS; Hsp40 alone, 100 mM ammonium acetate pH 7.5 (Figure S5C).
The target of experiment [9] is Hsp70 expressed in E. coli (Hsp70 E. coli) (human) (UniProt P0DMV8). The experiment in a line: native MS; 1:1 ratio of 13C-labeled Hsp70 E. coli and Hsp70Sf9 with catalytic amounts of Hsp40 and ATP.
Experiment [10] shares this target. The experiment in a line: native MS; Hsp70 E. coli at a higher concentration under which dimerization occurs, with phosphatase, 48 hr (Figures S1A and S1B).
The target is the same in experiment [11]. The experiment in a line: native MS; 1:1 mixture of 13C-labeled Hsp70 E. coli and Hsp70Sf9 at 8 μM; parameters designed to preserve non-covalent interactions.
The target in another experiment is Hsp70. In words: comparative BS3 cross-linking with LC-MS/MS. As to conditions: reference: Hsp70 expressed in E. coli; sites T504.
Experiment [12] addresses Hsp90 (human) (UniProt P07900). The experiment in a line: native MS; Hsp70GR complex formed with catalytic Hsp40 (0.3 μM) and ATP, then incubated with Hsp90_(2)Hop; Hsp90, Hop, Hsp70 and GR equimolar (1 μM each), or two Hsp70 per Hsp90_(2).
In experiment [13] the target is Hsp90 (human) (UniProt P07900). The experiment in a line: native MS; Hsp90 and Hop with either Hsp70 E. coli or Hsp70Sf9, in the absence of Hsp40.
The target of experiment [14] is Hsp90 (human) (UniProt P07900). The experiment in a line: native MS; stoichiometric amounts of p23 added to the client-loading complex Hsp90_(2)Hsp70_(2)HopGR.

Take “Hsp70 E. coli T504E phosphomimic variant (from UniProt P0DMV8 1-641) (natural protein)”: the stoichiometry N (as a rule, a count of units in the complex or per binding partner) in experiment [1] came to 2.
Take “Hsp70 expressed in Sf9 insect cells (Hsp70Sf9) (from UniProt P0DMV8 1-641) (natural protein)”: the stoichiometry N in experiment [2], in experiment [3], in experiment [4], in experiment [5], in [6] and in [7] was 2 each time.
In turn, “Hsp70 E. coli V438F/T504E substrate-binding-deficient variant (from UniProt P0DMV8 1-641) (natural protein)” came in with a stoichiometry N in [8] of 2.
On to “Yeast Hsp40 (from UniProt P25491 1-409) (natural protein)”, for which the stoichiometry N with Yeast Hsp40 (yeast) turned out to be 2.
Turning to “Hsp70 expressed in E. coli (Hsp70 E. coli) (from UniProt P0DMV8 1-641) (natural protein)”, the stoichiometry N in experiment [9], in experiment [10] and in experiment [11] was 2 in each case.
Hsp70 Hsp70 expressed in Sf9 cells: the “other: K569-K108 cross-link intensity ratio” value with Hsp70 was “stronger; reference 1.0”.
With “Hsp90 (from UniProt P07900 1-732) (natural protein)”, the stoichiometry N in the experiment with Hsp90 (human) [12], with Hsp90 (human) [13] and with Hsp90 (human) [14] was 2 throughout.
